This is an account of results in the supplement of paper PMC10567573.

A short description of this data set: protein stability index of a GFP-peptide fusion (GPS, HEK-293T) (PSI 1-6); higher = more stable.
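Note: lentivirally expressed fusions sorted by FACS into six bins by GFP to DsRed ratio, PSI derived from sequencing read proportions per bin multiplied by bin number.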

Take KPYKCTLCGENFSHRSNLIRHQRI: the protein stability index (parent: IOH6312_101, c terminus: a fixed tail appended) came to 2.32. Regarding QPKKLHLCPLCGKNFSNNSNLIRH, under “parent: IOH6312_63, c terminus: a fixed tail appended”, the protein stability index was found to be 2.55. Consider LARRRRRRQARREAEADKPRRLGR, for which, for the setting “parent: IOH6410_65, c terminus: a fixed tail appended”, the protein stability index turned out to be 4.75.

Take RPDTGDDAAGHGFCYCAGSHKRKR: the protein stability index (parent: IOH5876_6, c terminus: a fixed tail appended) was 2.92. As to SMTTPRCYVGATVLRGRLYAIAGY, the protein stability index (parent: IOH6063_85, c terminus: a fixed tail appended) stood at 2.41. Consider FCYCAGSHKRKRSSGSFCYCHPDS, for which the protein stability index (parent: IOH5876_8, c terminus: a fixed tail appended) amounted to 1.91. Take MASSSTVPLGFHYETKYVVLSYLG: the protein stability index (parent: IOH5956_1, c terminus: a fixed tail appended) amounted to 2.43. In the case of FQRRNMIEPRERAKFKRKYKVKLV, the protein stability index (parent: IOH6410_75, c terminus: a fixed tail appended) came to 2.25. Turning to LDYTADEDGVWYSVAPMNVRRGLA, the protein stability index (parent: IOH6063_59, c terminus: a fixed tail appended) was determined as 1.98.

For VPGTQVGQGGKLWDPSVQSCKEGL, the protein stability index (parent: IOH6312_45, c terminus: a fixed tail appended) was 4.2.

Turning to CSECGESFSRSSRLMSHQRTHTG, under “parent: IOH6312_114, c terminus: native”, the protein stability index is 2.98. For the protein REESLPNLLQYVRMPLLTPRYITD, where the note is “parent: IOH6063_36, c terminus: a fixed tail appended”, the protein stability index is 2.48.

As for RTHTGEKPYKCTLCGENFSHRSNL, the protein stability index (parent: IOH6312_100, c terminus: a fixed tail appended) came out at 2.17.

In the case of YPCVLATEGFTSGRHYWEVEVGDK, under “parent: IOH5913_59, c terminus: a fixed tail appended”, the protein stability index is 1.8. For the protein ERDFPCPVCRKTSRYRSLRPNRQL, the protein stability index (parent: IOH5913_11, c terminus: a fixed tail appended) amounted to 2.25. In the case of EKPYKCPECGEIFAHSSNLLRHQR, the protein stability index (parent: IOH6312_82, c terminus: a fixed tail appended) was 2.43.

Consider QSLDQEILLKVKTEIEEELKSLDK, for which, for the setting “parent: IOH5956_9, c terminus: a fixed tail appended”, the protein stability index amounted to 4.89.

As to PEASHLRFRRFRFQEAAGPREALS, the protein stability index (parent: IOH6312_7, c terminus: a fixed tail appended) stood at 2.65. LLRHQRIHTGERPYKCPECGKSFS: the protein stability index (parent: IOH6312_85, c terminus: a fixed tail appended) turned out to be 2.03. For the protein CKACITRWWEDLERDFPCPVCRKT, the protein stability index (parent: IOH5913_9, c terminus: a fixed tail appended) was 3.85.

Take FAHSSNLLRHQRIHTGERPYKCPE: for the setting “parent: IOH6312_84, c terminus: a fixed tail appended”, the protein stability index turned out to be 2.34. As for FVDILESDLKDDDAVPPGMESLIS [CDC25B WT], the protein stability index (parent: IOH6456_46, c terminus: a fixed tail appended) amounted to 3.07. With YNPSFEDHQTLLSAAHEVELQRQK, the protein stability index (parent: IOH6410_42, c terminus: a fixed tail appended) was 3.61.

For the protein HLTRHQRTHTGEKPYKCTLCGENF, the protein stability index (parent: IOH6312_99, c terminus: a fixed tail appended) stood at 2.9. With YIIQQGGWGTVFSLESEEEEYPGI, under “parent: IOH5956_33, c terminus: a fixed tail appended”, the protein stability index is 1.93. On to QRTHTGEKPYKCPECGEIFAHSSN, for which the protein stability index (parent: IOH6312_81, c terminus: a fixed tail appended) was determined as 3.1. As to FGGNPRFLSLHRAHLGEEAHKCLE, the protein stability index (parent: IOH6312_70, c terminus: a fixed tail appended) was 1.85.
